Key:
DC-SIGN/Fc chimera = molecular target: T1, DC-SIGN/Fc chimera (human, UniProt Q9NNX6 62-404); assay: SPR (Biacore 2000), receptor amine-coupled on CM5 chip, fusion protein as analyte, apparent Kd from steady state
T1 construct: Amine-coupled to a CM5 chip at 8312 RU; also called CD209; dendritic cell-specific ICAM-3-grabbing nonintegrin; Fc part of the bought chimera not given
T1 sequence (looked up): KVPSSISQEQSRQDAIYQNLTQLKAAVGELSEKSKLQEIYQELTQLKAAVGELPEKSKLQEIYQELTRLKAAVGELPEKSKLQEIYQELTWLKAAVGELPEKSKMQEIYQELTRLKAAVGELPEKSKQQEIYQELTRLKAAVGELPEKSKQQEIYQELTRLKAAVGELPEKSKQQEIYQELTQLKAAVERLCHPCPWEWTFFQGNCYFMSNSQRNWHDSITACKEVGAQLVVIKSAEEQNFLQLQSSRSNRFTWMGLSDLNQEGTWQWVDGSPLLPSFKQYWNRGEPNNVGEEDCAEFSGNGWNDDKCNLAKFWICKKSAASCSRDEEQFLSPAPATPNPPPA
Protocol: (§1) Immunoglobulin fusion proteins of PSGL-1 and AGP produced in wild type Pichia and purified, as described in Example 1, were used in experiments to assess their ability to bind to recombinant human macrophage mannose receptor (MMR), DC-SIGN/Fc chimera and mannan binding lectin (MBL) Using Biacore (real time surface plasmon resonance spectroscopy) analysis as follows.
(§2) Analyses were performed using a Biacore 2000 instrument (Biacore, GE Healthcare, Uppsala, Sweden). Recombinant human macrophage mannose receptor (MMR), DC-SIGN/Fc chimera and mannan binding lectin (MBL) were purchased from R & D Systems and immobilized on a CM5 sensor chip using amine coupling chemistry according to the manufacturer's instructions. Briefly, activation of the surface was made with EDC/NHS 1:1, 10 μL/min for 7 minutes and the receptors were dissolved in sodium acetate buffer pH 4.5 at concentrations of 15 μg/ml for MMR, 10 μg/ml for DC-SIGN and 90 μg/ml for MBL and immobilized at 10 μl/min for 7 minutes. Deactivation of excess of reactive groups was made with ethanolamine, 20 μl/min for 7 minutes. […] Data were calculated using BIAevaluation 4.1 software (Biacore, GE Healthcare) and the apparent equilibrium dissociation constants (Kd) were calculated by plotting steady state binding levels against the analyte concentrations for several concentrations simultaneously. […]

[1] = molecular target: T2, Recombinant human macrophage mannose receptor (MMR) (human, UniProt P22897 19-1383, limits assumed); assay: as above
T2 construct: Bought; Amine-coupled to a CM5 chip at 13745 RU; also called CD206
T2 sequence (looked up): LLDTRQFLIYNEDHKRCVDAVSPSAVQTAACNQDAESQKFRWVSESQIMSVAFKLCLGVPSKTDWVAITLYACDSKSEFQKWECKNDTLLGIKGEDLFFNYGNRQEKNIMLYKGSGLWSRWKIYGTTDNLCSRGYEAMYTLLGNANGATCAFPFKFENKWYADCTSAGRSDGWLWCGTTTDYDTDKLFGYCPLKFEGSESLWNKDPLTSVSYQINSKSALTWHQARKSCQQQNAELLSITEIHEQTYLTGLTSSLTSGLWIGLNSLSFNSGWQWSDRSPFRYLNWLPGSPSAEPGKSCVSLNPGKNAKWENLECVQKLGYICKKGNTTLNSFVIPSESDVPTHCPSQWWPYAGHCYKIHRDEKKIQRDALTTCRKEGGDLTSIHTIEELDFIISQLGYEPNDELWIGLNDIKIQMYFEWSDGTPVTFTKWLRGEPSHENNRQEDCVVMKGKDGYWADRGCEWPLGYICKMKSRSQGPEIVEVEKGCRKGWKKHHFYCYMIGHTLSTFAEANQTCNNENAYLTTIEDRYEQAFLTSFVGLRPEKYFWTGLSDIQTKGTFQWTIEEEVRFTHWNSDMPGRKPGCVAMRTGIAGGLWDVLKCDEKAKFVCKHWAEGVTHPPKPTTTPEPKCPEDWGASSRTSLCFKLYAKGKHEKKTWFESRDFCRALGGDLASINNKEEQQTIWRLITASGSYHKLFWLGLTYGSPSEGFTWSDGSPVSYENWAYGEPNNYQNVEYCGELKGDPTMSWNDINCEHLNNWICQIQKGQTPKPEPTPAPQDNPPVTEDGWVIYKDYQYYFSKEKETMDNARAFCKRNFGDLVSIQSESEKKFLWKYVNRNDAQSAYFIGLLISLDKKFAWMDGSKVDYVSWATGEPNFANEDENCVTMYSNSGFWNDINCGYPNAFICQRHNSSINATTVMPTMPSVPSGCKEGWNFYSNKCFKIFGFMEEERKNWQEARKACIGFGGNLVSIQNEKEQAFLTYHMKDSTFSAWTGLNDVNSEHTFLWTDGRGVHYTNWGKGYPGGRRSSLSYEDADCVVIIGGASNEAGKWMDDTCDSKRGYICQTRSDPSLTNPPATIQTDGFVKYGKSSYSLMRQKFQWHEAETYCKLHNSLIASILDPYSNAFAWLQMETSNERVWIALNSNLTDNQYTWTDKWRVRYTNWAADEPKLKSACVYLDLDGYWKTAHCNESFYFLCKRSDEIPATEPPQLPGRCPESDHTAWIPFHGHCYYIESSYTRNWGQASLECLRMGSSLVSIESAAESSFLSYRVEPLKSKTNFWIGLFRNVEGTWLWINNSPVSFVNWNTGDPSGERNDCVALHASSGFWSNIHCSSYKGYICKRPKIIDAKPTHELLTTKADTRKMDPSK
Protocol: as §1, §2

Kd (DC-SIGN/Fc chimera): 8.82 nM
Kd [1]: 76.7 nM
B1: PSGL-1/mIgG2b fusion protein produced in Pichia pastoris (Fc fusion, UniProt Q14242 18-320, looked up)
chain: LQLWDTWADEAEKALGPLLARDRRQATEYEYLDYDFLPETEPPEMLRNSTDTTPLTGPGTPESTTVEPAARRSTGLDAGGAVTELTTELANMGNLSTDSAAMEIQTTQPAATEAQTTQPVPTEAQTTPLAATEAQTTRLTATEAQTTPLAATEAQTTPPAATEAQTTQPTGLEAQTTAPAAMEAQTTAPAAMEAQTTPPAAMEAQTTQTTAMEAQTTAPEATEAQTTQPTATEAQTTPLAAMEALSTEPSATEALSMEPTTKRGLFIPFSVSSVTHKGIPMAASNLSVNYPVGAPDHISVKQC
modifications: O-linked mannose glycans (Hex2-9) and N-linked glycans from expression in P. pastoris; sites not given
notes: extracellular domain; Homodimeric chimeric glycoprotein, about 250-300 kDa, secreted from P. pastoris GS115 by the pPICZalpha vector and purified on MabSelect SuRe; also called PSGL-1/mlgG2b; Pp/PSGL1-mIgG2b; not shown: Fc part of mouse IgG2b

— patent publication US20090181041A1 (published 2009)
